# Data published in patent US20050074865.
# Tests used:
# [1] = target: recombinant human TNFα (RDI) (UniProt P01375)
# [2] = target: recombinant human TNFα (RDI), P01375
# Chain of recombinant human TNFα (RDI), P01375 (P01375 77-233): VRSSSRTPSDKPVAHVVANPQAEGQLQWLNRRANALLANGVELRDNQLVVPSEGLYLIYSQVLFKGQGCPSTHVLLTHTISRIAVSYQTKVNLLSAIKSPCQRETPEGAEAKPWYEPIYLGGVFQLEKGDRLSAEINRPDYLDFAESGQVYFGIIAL
# Chain of recombinant human TNFα (RDI) (P01375 77-233): as above
protein,measurement,setting,value
"ADAMTS4 (enzyme, UniProt O75173 213-837, looked up, species assumed) A disintegrin and metalloproteinase with thrombospondin motifs 4: FASLSRFVETLVVADDKMAAFHGAGLKRYLLTVMAAAAKAFKHPSIRNPVSLVVTRLVILGSGEEGPQVGPSAAQTLRSFCAWQRGLNTPEDSDPDHFDTAILFTRQDLCGVSTCDTLGMADVGTVCDPARSCAIVEDDGLQSAFTAAHELGHVFNMLHDNSKPCISLNGPLSTSRHVMAPVMAHVDPEEPWSPCSARFITDFLDNGYGHCLLDKPEAPLHLPVTFPGKDYDADRQCQLTFGPDSRHCPQLPPPCAALWCSGHLNGHAMCQTKHSPWADGTPCGPAQACMGGRCLHMDQLQDFNIPQAGGWGPWGPWGDCSRTCGGGVQFSSRDCTRPVPRNGGKYCEGRRTRFRSCNTEDCPTGSALTFREEQCAAYNHRTDLFKSFPGPMDWVPRYTGVAPQDQCKLTCQAQALGYYYVLEPRVVDGTPCSPDSSSVCVQGRCIHAGCDRIIGSKKKFDKCMVCGGDGSGCSKQSGSFRKFRYGYNNVVTIPAGATHILVRQQGNPGHRSIYLALKLPDGSYALNGEYTLMPSPTDVVLPGAVSLRYSGATAASETLSGHGPLAQPLTLQVLVAGNPQDTRLRYSFFVPRPTPSTPRPTPQDWLHRRAQILEILRRRPWAGRK","inactivation of TNFα bioactivity, L929 cytotoxicity bioassay after overnight digestion",[1],ADAMTS4 (column: Proteases that did not inactivate TNF)
"Cathepsin G (enzyme, UniProt P08311 21-244, looked up, species assumed) Cathepsin G: IIGGRESRPHSRPYMAYLQIQSPAGQSRCGGFLVREDFVLTAAHCWGSNINVTLGAHNIQRRENTQQHITARRAIRHPQYNQRTIQNDIMLLQLSRRVRRNRNVNPVALPRAQEGLRPGTLCTVAGWGRVSMRRGTDTLREVQLRVQRDRQCLRIFGSYDPRRQICVGDRRERKAAFKGDSGGPLLCNNVAHGIVSYGKSSGVPPEVFTRVSSFLPWIRTTMRS","inactivation of TNFα bioactivity, L929 cytotoxicity bioassay after overnight digestion",[1],Cathepsin G (column: Proteases that did not inactivate TNF)
"mesotrypsin, activated with enterokinase (C-terminal myc and His6 tags, expressed from pDEST40) (protein) IVGGYTCEENSLPYQVSLNSGSHFCGGSLISEQWVVSAAHCYKTRIQVRLGEHNIKVLEGNEQFINAAKIIRHPKYNRDTLDNDIMLIKLSSPAVINARVSTISLPTAPPAAGTECLISGWGNTLSFGADYPDELKCLDAPVLTQAECKASYPGKITNSMFCVGFLEGGKDSCQRDSGGPVVCNGQLQGVVSWGHGCAWKNRPGVYTKVYNYVDWIKDTIAANSEQKLISEEDLNSAVDHHHHHH","cleavage of TNF, Western blot with anti-TNF antibody after overnight incubation",[2],but not by enzyme (mesotrypsin) to an appreciatable degree
same,"inactivation of TNF bioactivity, L929 bioassay after overnight digestion, 100 nM mesotrypsin and 100 nM TNF",[2],"at equimolar ratios, mesotrypsin achieved only marginal inactivation of TNF in solution"
same,"inactivation of TNF bioactivity, L929 bioassay after overnight digestion, mesotrypsin at 86, 43 and 22 nM with 100 nM TNF",[2],"at these concentrations, the enzyme mesotrypsin, is either inactive or marginally active towards TNF"
